# Measurements as given in the NTF2 design screens of Basanta et al. (2020).
# Experiment: protease stability score; higher = more stable; yeast display proteolysis, trypsin and chymotrypsin;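 further: log10 excess protease needed over predicted unfolded state with 0 meaning unfolded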
row,Sequence,protease stability score
1,DERQNKEAFQRVAENITTNNPDEIMKQADPNVRFKYGDKEVHGRENVRDIVKEFNERVDRVQIDHVNVQGDKVNANATADVNGRKHRFQIHAVIKNGRLKFMQIHDQ,1.09
2,DEEENNKIARRAAKAFSTGDPDEFHKLVDPNARVRIGEKEVHGREDVHRMVQELRERADHIQVTSFTFQGNKITLDLSLDVNGHTVKLNVEITIHNGHVVDINIDPEQVKSLHG,0.647
3,EEEKKNRAHQFLKAVERGDPEELRKQFDPNAHARVGDKRYHGMEEWAKDVMRRVRELRMSIKRLSVDVQGNDVKVNMNLVINRNGKPKEFREVWYFKIHNGHFVELHVQEEP,0.477
4,DSTNVEILKEYVENQRRGNEDQLRRLMDPNVHVQVGDKQLHGDRQITDEFRRQQEHLRFSIKTYDYRDQGDKVRAHIVYEQMHNGRPETVRHNMVAEIHNGNIKYLQIESDQ,-0.301
5,DDQEDAEKAARRFNKIVNENNFDDLLNQFDPNARIQVGDKQYHGRSEISKFMQKWKRQIDHLEAHLKDVKVDNGRIDVKFKFQFHKNGTRVDRDMSLDARRQGDQINIQELHLG,0.198
6,DEEDQERLEDFLRALKKGDEERLKELVDPNAQFEIGDTTYHGREHFLHTMRRKNEEIRVERDFHTVRAENGHVEMHFHAQENHNGRPRTFTAHATAVIHNGRLKSFVLKVDG,-0.026
7,DEDARRKVEEFMDLMRNNNPEELAKLADPNATVHYGDKVVHGREQAMEWWKKFLTELRVDIKSVSIRVSGNKIDVEVDMIVQVNGRPVTLNWRFSFNFNNGKIEQIHVHISEEQQERIHS,0.68
8,DHTADRIIRNLMDALNQNDEDKAVKLMDENVRFRIGDKEYQGRERWKKLLQDWNKHASIRYTVDSMDRRGEKVHVKFELKVNINGNPVTVRVTVEFEIRNGKIKSAVYEMDPDDAKEVWS,0.925
9,DSEKMHEINKALKTNDPDKLEQLMDKDVRAKVGDKTFHGREEVVKMWRDLYKQADHVNVDRVDVQGEKIDATVRADFNGTSVDYKVHISASNGRIKHITVTVTDEERHRQLQSVLG,1.31
10,DERVKRLVEQWFRAIEHGDPDQERKYFDPNARVEIGDRELNGREEIAHDLKRRHDEMHLHLKSVTIRVEGDHAEVNVRFQQDHNGKPEQKVQHVVLHFRGDYVRKMEVRDTK,1.15
11,DEEQVRKMLETILKMMVNGNLEEVKKVLKPNVDYQLGDEKLQGQQVAERADKYIKKVGVRAEIKRAKVEGDTAELDYEFTADGRTVRVTVQAHAKDGRLDQWRVEVSDTAKKIRQKG,0.736
12,DEKEQEDFARSFIEAFRTNDPSQIKTLMDEEATVSVGDKTYHGRKAAEDWATQLKEEVDHIDVKDLKVHNGHIEIEVRLKVNGHTRDYLISIQFHNGRVKRMSVSKQ,-0.432
13,DDETAEKLAREFIEALKEGNEEQVRRLVDENVRVEVGDTTFHGREEAAKFAKEFKQHADHVEIRDVSVHGDKVELNLVLNVNGRERDVVVIVRVENGKIKEFQYREN,1.22
14,DEDTLRTQEEQFKRNNPDDLKKQFDPNAKIRYGDKEITGREDLKKFIDKLRKRIDHYRVRSINIKGEHVRADVVVVVDGRHVRYKVIRHLDNGKVKSLEVKFTSEEQEKKFKEALD,0.261
15,DEENAKTLKQQMNQYQSGDEEEVQENVDKDAKFVIGDKRIHGREKYREQVRRELEDIRIDVKIKHLNDKGEKVQVHARLERNHNGRPTDATVDVVVRWHNGRAKEAQFHTDG,-0.11
16,DEEKHAKEVLDKFLKIAQEGDPKKMHELVDPNATFQVGDKEVHGRESAIESLQKFLEKVDHMRLEITEVRVRGNKFNIVAKLRADINGQKVDKRLIIVFTHHNGRLQMSHLRMD,2.34
17,DEEEVQKILKTMNELLKHNDFDSLARQADPNAEFHVGDKRVHGREQVQTMLQDLRERIDHVEIRSMTAQGDKFKLDFLENVNGRRTRVTAHADVHNGRIKSVEYRTS,-0.619
18,DEHDMAHKFFHDLVEAAKTGDRDKIKRLADPNVKIEYGDKRLHGHKDYANFIQKIVERVDSVNFQLQSVSVTGDKVRMIYTLDVVENGQKRTDRLQIEAQIHNGDIIAKRVVEG,0.873
19,DETTVHHILKNFNEAMEQGDPKQAMRLADKDVKLDVGDKRVSGSETLDTLVKNIRDQADTISVKTVHVDGDTAHAVLVIRINGKDVEFNVRIEVHNGRIKSLEMDPDKLKSAMK,0.852
20,DEHARDRATQMIEAIHNGDPDTLQELLDEDAHIQIGDKEIHGHDQASRELRRRREEQNVDVRVRDLKVTGERVKIDVEIRVSHNGQPTETKVTIDVEAHNGKIKDLRMRTSQ,0.15
21,DEDNTDRARKFFEALRTNDPDQVSSLLDPNARVHIGDRVINGREEVRTHIKHLTDKIRFQIQKVTVHVSNGRISAHVTFEVEVNGRPDRFNMEVVARVENGKIKVMQFKISEDQMQKLRN,1.39
22,DEDHVQDKAEDLARAIQRGDEDRMNELFDENVKVQVGDKTIHGRENVVDHMREQNEQADRIEIKSITATGDKIRIEMVVVHNGQNTHVVFEVKWENGKIKHMTQKTE,1.94
23,DEKKIYDLLKKMVEAYVSGNAEEVRKLLKDDGTLDVGDQQYHGVEQVTKAAEEFQKYGVELHLTDYRFDGDRVDVKAVAHLGGNTWEFTVTVQADGGKVDRLVFHVSEEAVKYIQKG,1.28
24,DEDKLKSMFRQLQRVLTQGNPHDARKLFDEDAHLVVGDKRWTGREEVVKFIEELTRRYDHLEIKSFSVSNGRMVVNASAHVNGKSIDIHYIMEVDNGRVKYLRVDVRNEEELKKVLS,1.27
25,DEKTVKEVVDKWIKALENNDEEKLQKMLKPNGEAHYADTTYKGKDQIVKYVVEFMRRGVELQVKEQEVKGGRAEYQVDATLGGDTVTLRVVIYVKDGVVDKVEFRDDEKVQKMMKKG,0.105

row,Sequence,protease stability score
1,DDDEMHKLVEHAIKAWETGDHKKAMDLIDPNAKVDVGDREIHGREEFSHHVREINKKVDRVDVQDYKVRGNKAQVRMQFNVNGQTVVVNLVFVMSNGRLSRVQIDVTDPDKFRSAQS,0.138
2,DEEHNERVAEEINRIMRDGDEERFEEMVDEDVKLQVGDKTWSGREEARKWQHEMWNSVDHVHIQDFEVSGDEIVIHFQLEHNGRREQAVVIVRFSNGRIKMMTIETQ,1.41
3,DEKKLLEIAKEVADYVRNGNADQVAKLGKEGIQANFGDEQVNGPDQMREYVKKVKDLGLHAEYKEEKYEGDTVELHTQAHLGDVTADFTVTYIVKGDKLDKVEVRFNKEQMKKFKTS,0.007
4,DESLEERLDTLRKVEEQGDEDTAREQADPNVKIVVGDRRVHGMDEQLEELRRRVKEARVTIESLSVDAHGDKVDVKVRLTFTIDGRPASVNLHQHYQLQNGKFKHVEARFSEEDRDELQT,0.846
5,DEEVAEQAAKLLEHNDFEKLVDMVDPNVDVEYGDKTVSGRNRVKRVMEKWTRRYDHYEIHTYSISNGRLSADVRAVVNGREVRYVQTIRVHNGRIQKMKIDVTDEDDERNLRKLES,-0.161
6,DDKDQHEEVEKFARNVVSGNSDELRKQMDKDVRANVGDKTLRGREEVADFWKHMRDRIDHAEIKEIRFHNGEARIVMQFVHNGRTKQINIVMEFHDGHVKRLRVEDG,2.73
7,DERVKSQATEFVTALKRNDEKRLMELADKDVSVRYGDKVVHGRERVRETARHITEESRVEYDTVRVDVQGNQANVEMEATFDHNGKPDRAKVNIQINFHNGKIKRVRIDKKP,0.971
8,DEELRRRLEKFFRDLRNGNESEAVKLVDPNARFNIGDTEYHGMHDYARELLRQRHKLNWHVRQVTIEAKNGHVNITMSVQFNVNGRPDSYTNTVRAVLHNGRVKEMSNRVPKDQLHKIKK,0.209
9,DEKKDREAAQKAARAFVKGNKDKVKELGKEDVTAKFGDEEFRGVDQVTKAMEHWLKMGDQMQLREEKDEKNHVKVRTDQRVGGYEVTTEATYHAQGGRVDHAEDREPPEAQKLMQKG,-0.258
10,DEEELEKINQLIKTNDFQQLRQDADPNVQVEYGDKSYHGRENLTKNMREFEKMVDHVQLKDYRVKGEKLEADMVATVNGREIRFTLSMNVHNGKIKQISLKYRNEDQKRRMEEALN,0.922
11,DDKAADDARRALEQLNTGNEERAATYMDPNVSVRIGDKSVHGREEIQRSEERKRRRLEVQYKDYRVSVENGEFTASYDYTNHHNGRPQRVKVEVHISADNGKIKSVQQHEDK,0.213
12,DDQALRLLEEWLKAVQEGDQERAHEMADPNAKFEVGDKTINGMDDVNEQIRRDTESMRYQVQNVHSITRPNHVQADVQFENEHNGNPDTNRMVIQARATNGRIQSLRIQDKK,0.058
13,DREIQHQVTELLEARRRGDEKRLQQNFDPNARMRIGDKEWHGMDTAAEEIAHEQREMRFDVKSIEVRVSGNKVSVDNRYVLEHDGRPHEFVQHDDVEMSNGKFKTAEVKHDG,-0.408
14,EEEAVRRYERMLRLVQNNNTEELNKQLDPNVEYDYGNHEIHGREQAVREMLKLQRKMRIEIQFDRVRHEGDKAVVKYTVLFDINGRPITNSATLYVKFKNGKIVYASAQMPEDFQRKVSS,0.876
15,DEESVQTFAQQRRQGNFEELIKMMDPNVEMKVGDKTWTGREQVQTALEHLKERVDRIQIDHMDVKGNHVDIDYVLNFNGRNVKATQKIEMKNGSAKRIQIDATNEENEKELKKAFS,-0.163
16,EEEQLKTVKQWQENEKTGNEEELKKQADPNAKFRIGDHEVRGMENYAHDVIRRVKDARVDYETISHDVNGDRVVIRAVYRMNHNGRPSSYEYTVHYEMHNGKMKNVTVNKRQ,0.041
17,DKEEAKKILDKAVKAVENGNLEELKQMGKEGVEYELIDKKAHGPEVVHKVMEKLQRHGAELEFKRVQVEGDTVHTVVDYRVGDTEMRATAEATVQGGRIDKVRIEMSEEAQKTIKHG,-0.272
18,DETAARDVEELLTHVKTNNPENVVKLADPNAKAKIGDQTVKGREELTKQMTKELRHQRMSVEIKDYKVHGNKVVIDAEFTYNHNGRPQKKDVEIYVVFRGEKIEKFVWRTDG,0.627
19,DEDLQKQAERFLHAVNTGNEEQIHRLVDKDARMQYGDRRVHGRERIATWYRQMKEEIRQDIEVRTVRVRNGRVEVDARVERHVNGRPIDNKFHMSIQIENGKVKSITAHLDPNVLQEIKR,1.17
20,DEEHVKRMATTFAKQMRHNNPDDIMKQMDKNVQLRYGDKEVEGDENVRRRLKTLHDQVDHVEVKDYTAHGNSIRIVVRLEVNGKTANFVLIVIVENGRVLKANIDPKALDSYEK,0.253
21,DESAIQHWRKMLEAVETGDEKKIQKQADPNAKFRVGDKVIHGREKYAKQKVQEARQIRVEIDIKDWENRPGRVNLDADARYEINGQPVTFRLEVEMRMHNGHFVSVDVQFDEEKWEKLHK,0.037
22,DEEKEATKQVSEWIENMKSGDEDRLRELADKNAKVRYGDEEVHGMDQAAERWRNQRQKYDSLEVEVRDLKNHNGQVVVDQVERFNHNGKTDQRRVIITMERRPNHFVVQEVVQP,-0.331
23,DEKHAQHAAEIAEQGDPDEWEELADKDVKVDIGDQRVHGREQASSFWRKLREQADTIEYKSYRVDNGRVQLDFVVDINGHRLEFTLRFVVDNGRITEMEVQARDERQNEELKKIDS,0.524
24,DEDTARKQVQIYKDNDPNQLVRMFDENARLKVGDQTVDGREELERWVKRLRTRVDRYSYKNVDIQGERVVIDMVMVVDGKQVEFVVEFVVEDGRIKNAKVQARNKDEETKLQEAIG,1.25
25,DEELKKTATEFNKALNQNDEKRLKTLADPNATFVVGDEVIHGMDHVNKHQHDLKRNLRISIDVRDMKNSGPQAHVNAQVVFEIDGRPRQVEINYIITYHNGKVKKVRVDMDPEQLKEIKK,1.08
